Measured values taken from US20220251185A1 (VALITOR, published 2022).

Biological target: T1, VEGF (biotinylated target on streptavidin BLI probe) (UniProt P15692-4 27-191, limits assumed, biotin (site not stated))
T1 construct: also called vascular endothelial growth factor
Assay: binding kinetics, Kd (nM); Example 6 describes BLI on biotinylated target

T1 sequence (P15692 other isoform, or with tags, fused parts or gaps limits assumed): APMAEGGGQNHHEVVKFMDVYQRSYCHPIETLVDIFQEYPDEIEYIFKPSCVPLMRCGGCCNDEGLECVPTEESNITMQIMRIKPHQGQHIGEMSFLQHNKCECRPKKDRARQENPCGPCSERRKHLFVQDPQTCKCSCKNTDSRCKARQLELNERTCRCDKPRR

B1: G5-1 (VHH)
VHH: EVQLQASGGGFVQPGGSLRLSCAASGSTYANYVMGWFRQAPGKEREFVSAISAFNDEVLYYADSVKGRFTISRDNSKNTVYLQMNSLRAEDTATYYCARAGQEEASKNAPGQEPVRYWGQGTQVTVSS
notes: unconjugated comparator of conjugates 24 and 25; also called G5-1 aVEGF VHH, unconjugated; G5-1 alone
Kd: 29.3 nM
